Laboratory results taken from the RNAGym collection of RNA variant scans (doi:10.1073/pnas.2313332121).
Variants at the floor of the assay were thinned out.

B1: TPR 5TU (parent)
chain: GGAUCUUCUCGAUCUAACAAAAAAGACAAAUCUGCCACAAAGCUUGAGAGCAUCUUCGGAUGCAGAGGCGGCAGCCUUCGGUGGCGCGAUAGCGCCAACGUUCUCAACUAUGACACGCAAAACGCGUGCUCCGUUGAAUGGAGUUUAUCAUG

Variants of: B1
Test: polymerase ribozyme fitness, log enrichment relative to wild type (log ratio); higher = more active; in vitro selection for triplet polymerase activity
Method in brief: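 Mutant libraries of both subunits of a heterodimeric triplet polymerase ribozyme were PCR-built, transcribed, and selected once in triplicate, with frozen incubation at −7 °C and capture of gel-excised extended constructs on streptavidin beads before RT-PCR. Illumina sequencing of input and output libraries was filtered to genotypes with ≥10 input reads and ≥1 read per output. Fitness is the logarithm of genotype enrichment over wild-type enrichment, using inverse-variance-weighted replicate averages. The logarithm is base 2.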

Variant | polymerase ribozyme fitness (log ratio)
A106G C125A | -0.665
A106C C116G | -0.324
C108G G136A A147C | ≤ -4.2
C103G U135A | -2.27
A110U U127A | -4.06
U102G U148A | -3.81
A110U | -3.57
A110G | -2.42
C114U G141C | -3.4
C114G A119G | -2.84
U102G U104C U148A A150U | ≤ -4.2
C105U A120U G124A | 0.877
A110G C129U U144C | ≤ -4.2
U102C U148C | -3.19
U101C A150G | -1.59
A107G U127C A138C | ≤ -4.2
U101G A113U | -1.25
C103A A120C G124A U134A | -3.66
C103G U145G | -1.87
U104G U134G G143A | -3.69
C108A G143U U144G | ≤ -4.2

Variant | polymerase ribozyme fitness (log ratio)
U104C U135G | -3.31
U104A | 0.0691
U104C | 0.352
U104G | -0.299
A106G C116U U148C | -1.25
C103G A107G A142G | ≤ -4.2
C114U A137U | -4.05
U101G C118A G126A | -3.59
A107G C132U G133U | -3.52
C103G U151A | ≤ -4.2
U101G G136A | 0.652
U101G G136C | -2.44
U109G C114G | -3.7
C103G G128C | ≤ -4.2
A113U A120G | -1.73
U102G G124C G133A A137G G143U | ≤ -4.2
A107U U145A | -2.78
C105U U109G G133C | -1.81
C105G A107U U148C | ≤ -4.2
U109G C118A C125G | -3.62
C108A G124U G140C | ≤ -4.2

Variant | polymerase ribozyme fitness (log ratio)
G100U U144G | -3.5
U109G A142C | -2.18
U102C A120U G140C | -3.56
C105G U134C G140U | -4.18
A107U A115G | -4.16
U102G U104C | ≤ -4.2
C114U G136C | -3.39
C103A A142G | -2.71
C114U C118G | -2.88
U101G A107U | -3.84
C108U A147C | -3.44
A106G G117A | 0.816
A107U A110U C114U | ≤ -4.2
U101A G143C | -2.08
C103G G141U | -3.36
C114G G133A | ≤ -4.2
A106C G152U | -2.57
C105G A120U | -0.931
C114U C131U | -1.64
C114U U135C | -2.95
U109G C116A | -2.26

Variant | polymerase ribozyme fitness (log ratio)
U109G C116G | -0.501
A107G C131A | -4.19
U111C G117U | -4.09
A113G A138U | -3.79
U102G C116G G133C | -3.6
A107U A120G C132A A147C | ≤ -4.2
C105A A113U | ≤ -4.2
A106G C118U | 0.261
C103G C108G G124C U144A U145G | ≤ -4.2
A110G G136A | -2.94
A106G U146A | -0.139
C103A G117U | -0.489
U102C G136A | -0.705
C103A A120G C131U A138U | -3.71
G112A | -1.96
G112C | -2.68
G112U | -2.77
U102A G128U | -4.1
C114U U148G | -3.06
U101A A106C A147G | -3.14
U104A A137C | -3.89
